From PMC8184781, “A histone H3K4me1-specific binding protein is required for siRNA accumulation and DNA methylation at a subset of loci targeted by RNA-directed DNA methylation” (Nature Communications, 2021)

Molecular target: H4K20me1 peptide (monomethyllysine at K20)
Assay: ITC; Microcal PEAQ-ITC; peptide (about 1.0–1.5 mM) and protein (about 0.8–0.12 mM as printed) in 100 mM NaCl, 20 mM HEPES pH 7.0, 2 mM β-mercaptoethanol; 20 °C
Conditions: both partners purified

Kd: 22.9 µM
B1: RDM15 Tudor domain (residues 598–662) (domain or fragment, Arabidopsis thaliana, UniProt Q8GUP3 598-662, looked up)
chain: LGQGKASGESLVGSRIKVWWPMDQAYYKGVVESYDAAKKKHLVIYDDGDQEILYLKNQKWSPLDE
notes: A Se-Met labelled form was also made; the structure was solved by SAD, so the crystal may hold the Se-Met protein; also called C-terminal Tudor domain of RDM15; source: E. coli BL21(DE3), purified (HisTrap, ulp1 digestion, second HisTrap, Superdex G75)
